The record followed here is patent publication US20240132578A1.

Assay in all cases: cell-based or functional assay
Experiment [1] has as its target HIV-1 Env of isolate MGRM-D-005 (pseudovirus) (HIV-1).
Experiment [2] has as its target HIV-1 Env of isolate MGRM-A-001 (pseudovirus) (HIV-1).
The target of experiment [3] is HIV-1 Env of isolate MGRM-AG-011 (subtype AG) (HIV-1).
In experiment [4] the target is HIV-1 Env of isolate MGRM-D-012 (pseudovirus) (HIV-1).
In experiment [5] the target is HIV-1 Env of isolate MGRM-D-026 (HIV-1).
Experiment [6] has as its target HIV-1 Env of isolate MGRM-D-001 (pseudovirus) (HIV-1).
Experiment [7] addresses HIV-1 Env of pseudovirus isolate MGRM-C-022 (clade C) (HIV-1).
Experiment [8] deals with HIV-1 Env of isolate MGRM-Chronic-B-004 (HIV-1).
Experiment [9] concerns the target HIV-1 Env of isolate MGRM-AG-001 (subtype AG) (HIV-1).
In experiment [10] the target is HIV-1 Env of isolate 92WR026 (pseudovirus) (HIV-1).
For experiment [11], the target named is HIV-1 Env of isolate MGRM-G-001 (subtype G) (HIV-1).
The target in experiment [12] is HIV-1 Env of isolate MGRM-AE-003 (pseudovirus) (HIV-1).
Experiment [13] concerns the target HIV-1 Env of isolate MGRM-AG-013 (pseudovirus) (HIV-1).
Experiment [14] concerns the target HIV-1 Env of isolate MGRM-G-015 (subtype G) (HIV-1).
The target in experiment [15] is HIV-1 MGRM-C-028 Env (HIV-1).
Experiment [16] has as its target HIV-1 envelope glycoprotein (Env) of isolate 92WR021, subtype A (HIV-1).
Experiment [17] concerns the target HIV-1 Env of isolate MGRM-F1-017 (pseudovirus) (HIV-1).
The target of experiment [18] is HIV-1 CMU02 Env (HIV-1).
The target in experiment [19] is HIV-1 92UG024 Env (HIV-1).
Experiment [20] has as its target HIV-1 envelope glycoprotein (Env) of isolate MGRM-AE-001, subtype AE (HIV-1).
In experiment [21] the target is HIV-1 envelope glycoprotein (Env) of isolate 92RW008, subtype A (HIV-1).
Experiment [22] concerns the target HIV-1 envelope glycoprotein (Env) of isolate 92TH021, subtype AE (HIV-1).
The target of experiment [23] is HIV-1 MGRM-AG-001 Env (pseudovirus) (HIV-1).
Experiment [24] addresses HIV-1 Env of isolate 94UG103 (clade A pseudovirus) (HIV-1).
Experiment [25] deals with HIV-1 Env of isolate 92RW008 (clade A pseudovirus) (HIV-1).
The target of experiment [26] is HIV-1 APV-6 envelope (Env) on pseudovirus (HIV-1).
For experiment [27], the target named is HIV-1 Env of isolate CAAN.A2 (Acute), clade B (HIV-1).
Experiment [28] has as its target HIV-1 envelope glycoprotein (Env) of isolate MGRM-C-006 (HIV-1).
Experiment [29] has as its target HIV-1 MGRM-AG-011 Env (pseudovirus) (HIV-1).
Experiment [30] has as its target HIV-1 92RW020 envelope (Env) on pseudovirus (HIV-1).
Experiment [31] addresses HIV-1 Env of isolate JRCSF (Clade B) (HIV-1) (UniProt P20871).
Experiment [32] has as its target HIV-1 Env of isolate THR0.18 (Acute), clade B (HIV-1).
The target of experiment [33] is HIV-1 MGRM-AE-006 Env (pseudovirus) (HIV-1).
Experiment [34] addresses HIV-1 94UG103 envelope (Env) on pseudovirus (HIV-1).

For 5114_A19 (PGT-128) (antibody), the IC50 (µg/mL), pseudovirus neutralization in experiment [1] is 0.051 µg/mL; in [2], over 50 µg/mL; in [4], over 50 µg/mL; in [5] it was over 50 µg/mL; in experiment [6], 0.138 µg/mL; in [8], 0.009 µg/mL. For the same substance, the IC50 (µg/mL), pseudovirus neutralization in experiment [10] was determined as 0.01 µg/mL. The IC50, pseudovirus neutralization in experiment [3] was 3.93 mg/L; in experiment [7], 0.042 mg/L; in [9] it was 4.73 mg/L.

As to PGV04 (antibody), the IC50 (µg/mL), pseudovirus neutralization is over 50 µg/mL in experiment [11], 6.4 µg/mL in [12], 0.03 µg/mL in [13] and 0.333 µg/mL in experiment [14].

4858_P08 (PGT-123) (antibody): the IC50, pseudovirus neutralization is 0.443 mg/L in experiment [15]; 0.005 mg/L in experiment [16]; over 10 mg/L in experiment [18]; over 10 mg/L in experiment [19]; over 50 mg/L in [20]; 0.003 mg/L in experiment [21]. This substance gave an IC50, pseudovirus neutralization in [22] of over 50 mg/L. The IC50 (µg/mL), pseudovirus neutralization in experiment [17] was over 50 µg/mL; in experiment [13], 3.37 µg/mL.

For 5141_B17 (PGT-126) (antibody), the IC50, pseudovirus neutralization is 0.283 mg/L in [15]; 0.006 mg/L in experiment [16]; over 10 mg/L in experiment [18]; over 10 mg/L in experiment [19]; 9.68 mg/L in experiment [20]; 0.008 mg/L in experiment [21]. This substance registered an IC50, pseudovirus neutralization in [22] of 0.197 mg/L. Further, the IC50 (µg/mL), pseudovirus neutralization in [17] was over 50 µg/mL; in experiment [13] it was 0.008 µg/mL.

As for 4838_L06 (PGT-121) (antibody), the IC50, pseudovirus neutralization is 0.009 mg/L in [16]; over 10 mg/L in experiment [18]; over 10 mg/L in experiment [19]; over 50 mg/L in experiment [20]; 0.003 mg/L in experiment [21]; over 50 mg/L in experiment [22]. The same substance registered an IC50 (µg/mL), pseudovirus neutralization in [17] of 16.9 µg/mL.

As for 5136_H01 (PGT-131) (antibody), the IC50 (µg/mL), pseudovirus neutralization in [1] is over 50 µg/mL; in experiment [2], over 50 µg/mL; in experiment [4], over 50 µg/mL; in [5], over 50 µg/mL; in experiment [6] it was over 50 µg/mL; in [8], 0.04 µg/mL. Moreover, the IC50 (µg/mL), pseudovirus neutralization in experiment [10] was 0.041 µg/mL. Further, the IC50, pseudovirus neutralization was over 50 mg/L in [3], 0.78 mg/L in [7] and over 50 mg/L in experiment [9].

With 5345_I01 (PGT-137) (antibody), the IC50 (µg/mL), pseudovirus neutralization in experiment [1], in [2], in experiment [4], in [5], in experiment [6] and in [8] was over 50 µg/mL in each case. The substance further returned an IC50 (µg/mL), pseudovirus neutralization in [10] of 0.092 µg/mL. For the same substance, the IC50, pseudovirus neutralization in experiment [3], in experiment [7] and in experiment [9] was over 50 mg/L each time.

As to 5329_C19 (PGT-136) (antibody), the IC50 (µg/mL), pseudovirus neutralization in [1], in [2], in experiment [4], in [5], in [6] and in [8] was over 50 µg/mL throughout. Besides, the IC50 (µg/mL), pseudovirus neutralization in [10] is over 50 µg/mL. Also, the IC50, pseudovirus neutralization in experiment [3], in experiment [7] and in experiment [9] was over 50 mg/L each time.

On to 5147_N06 (PGT-130) (antibody), for which the IC50 (µg/mL), pseudovirus neutralization is over 50 µg/mL in [1]; over 50 µg/mL in experiment [2]; over 50 µg/mL in experiment [4]; over 50 µg/mL in experiment [5]; over 50 µg/mL in experiment [6]; 0.01 µg/mL in [8]. This substance also yielded an IC50 (µg/mL), pseudovirus neutralization in experiment [10] of 0.037 µg/mL. Moreover, the IC50, pseudovirus neutralization was over 10 mg/L in experiment [15]; over 50 mg/L in experiment [3]; over 10 mg/L in experiment [18]; over 10 mg/L in experiment [19]; 0.127 mg/L in [7]; over 50 mg/L in [9].

Regarding 5145_B14 (PGT-127) (antibody), the IC50, pseudovirus neutralization in [16] is 0.011 mg/L; in experiment [20], over 50 mg/L; in experiment [21] it was 0.012 mg/L; in [22], over 50 mg/L. The IC50 (µg/mL), pseudovirus neutralization is over 50 µg/mL in experiment [17] and 0.018 µg/mL in [13].

On to 5343_B08 (PGT-135) (antibody), for which the IC50 (µg/mL), pseudovirus neutralization in experiment [1], in [2], in experiment [4], in experiment [5], in experiment [6] and in experiment [8] was over 50 µg/mL in each case. In [10], the IC50 (µg/mL), pseudovirus neutralization stood at 0.068 µg/mL. In addition, the IC50, pseudovirus neutralization in experiment [3], in experiment [7] and in experiment [9] was over 50 mg/L each time.

With 5123_A06 (PGT-125) (antibody), the IC50, pseudovirus neutralization in experiment [15] was 5.78 mg/L; in experiment [16] it was 0.005 mg/L; in experiment [18], over 10 mg/L; in experiment [19] it was over 10 mg/L; in experiment [20], 2.95 mg/L; in experiment [21], 0.004 mg/L. In experiment [22], this substance came in with an IC50, pseudovirus neutralization of 0.006 mg/L. For the same substance, the IC50 (µg/mL), pseudovirus neutralization in experiment [17] is over 50 µg/mL; in experiment [13], 0.004 µg/mL.

On to 4877_D15 (PGT-122) (antibody), for which the IC50, pseudovirus neutralization was 2.06 mg/L in [15]; 0.021 mg/L in [16]; over 10 mg/L in experiment [18]; over 10 mg/L in experiment [19]; over 50 mg/L in experiment [20]; 0.003 mg/L in experiment [21]. This substance displayed an IC50, pseudovirus neutralization in experiment [22] of over 50 mg/L. For the same substance, the values for the IC50 (µg/mL), pseudovirus neutralization in experiment [17] and in experiment [13] were over 50 µg/mL and 0.521 µg/mL, respectively.

In the case of 1496_C09 (PG9) (TCN-109) (antibody), the IC50 (µg/mL), pseudovirus neutralization in [11] stood at 0.166 µg/mL; in [12] it was 0.044 µg/mL; in experiment [13] it was 0.259 µg/mL; in experiment [14], 6.6 µg/mL. The IC50, pseudovirus neutralization was 0.121 mg/L in [15] and 1.91 mg/L in [19]. Besides, the IC50 (µg/ml), pseudovirus neutralization in experiment [23] turned out to be 8.83 µg/mL; in experiment [24], 0.24 µg/mL; in experiment [25] it was 0.01 µg/mL; in [27] it was 5.67 µg/mL; in experiment [28] it was 0.23 µg/mL; in experiment [29] it was 0.01 µg/mL. Moreover, the IC50 (µg/ml), pseudovirus neutralization came out at 12.4 µg/mL in experiment [32] and 0.05 µg/mL in experiment [33]. Moreover, the neutralization IC50 came out at 0.0869 mg/L in experiment [26], 0.0637 mg/L in experiment [30], 0.0048 mg/L in experiment [31] and 0.173 mg/L in [34]. In [31], this substance registered an IC90 (neutralization of pseudovirus) of under 0.0025 mg/L. Besides, the Neutralization IC80 in experiment [31] was 0.0181 mg/L. Further, the Neutralization IC90 in [31] was 0.0391 mg/L. In addition, the Neutralization IC95 in experiment [31] was 0.0798 mg/L.
